Laboratory results published in a protein production outcome set (Wang et al. 2014).

Assay: label from the status in PepcDB records

Sequence	protein production
VILKKIFIALIALVVIINTVSFTAVSASTPTWLEQTMNSNEPFIKEIEKETGKTRANITQTDLEAITALRVTGASDIPTNIDMLTHLTTLEVKSGTLSSVSNSVGNLKELKILVLNDNNLSTFPTIVFQLPKLEELQVSGGTIEEIPATITNMASHLKFLGILNNHLVKVPDAIFTTNWTNATGGDLDLMAAGNQIVTNIPANYISQFNNGNNLLEFYDNNYQKQDQLTTTPGYTIDVPVGTDFNQLTPDKTKLALTSGRTLLAQHEFEYYDDGSSSLIHNGVAAAPGQATIFIKSKFSTQSNKFARTQVTVNIIALNGGPITVKHEDTKGQELAPPVILNGKDGDPYTTTQKTFPGYTLVATPANQNGTFTMNPATVNYVYSANDYKLTSTFKDAQGQELKAPVVDTKDYHIQDNYTTTAATIPGYSLVSTPANQNGTFGAGNVTVNYVYKKDDYTLTSTYKDTNGQELKAPVVDATTYHYQDTYTTTAAVFPGYTLVATPTNATGTFGSSNITVNYVYQANGYQLTSTFKDQQGKTIAPDDVDAKTYHVNDPYTTTAKTIPGYTLVTTPANNQGNFGTSDITVDYVYKAEDYTLTSTYKDAQGKELKQPVVDSKKYHIQDNYSTSAAAIPGYTLVATPANETGTFHTSDVTVNYVYKLTDLKLTSTYKDAQGTELKAPVVDSKTYHIQDNYATTAAVIPGYTLVATPANQSGTFGSTDIQVNYVYQAVAYKLTSTYKDQQGNDLALPKVDTKTYHIQDGYTTSDIAIPGYTLVAAPTNQTGTFGASDVTVNYVYKANDYTLTSTYKDAQGKELKTPVIDSQKYHINDTYTTTGATIPGYTLVAAPANQSGTFGAANVTVNYVYKADDYTLTSTYKDANGKELKAPVVDSKTYHTKDNYSTSAATIPGYTLVAVPANQTGTFNTSNVTVNYVYKANEYTLTSTFKNVQGTELKPAIVKKGFIIKDGYATSGVTIPGYTLVATPSNKKGTFGASNVTVNYVYKANGYALITTYKDTQGKDLKPLAIDTKIYNINDPYTATALNIPGYTLTTTPANEKGVFGASDETVNYVYKANDYTLTTTYKDANGKELQAPKVDAKTYHIQDTYKTTAAVIPGYTLVATPKNDQGAFGANNVTVNYVYQTNDYTLTSTFKDAQGNELKAADVDAQKYHIHDTYTSKAAVIPGYTLEKTPTNETGTFNASDIQVNYVYKANDYQLTSTFKDQQGNEIALPTVDAKTYHIHDAYTTKARLIPGYSLVAAPKNQIGAFGTSDVTVNYVYKKDAIIKPITPAKPTILTIKTPASKVIKTKVVKQTLPKTGDDDAGLLNLLRLIGLVLILGVFLAVGSKKLR	failed
MSDSAEMQQPELLLKSMNKLNGYHPQLIIPKKTLFKCDLDDKQSRLQVSSMHMENSGFLTEDEKRTIEAQKMKKRRTAGLRVAFIDPESQQYVLELHKWTKSYAFVKGWNKVVDKNDKTFKVGDVFSLWVFRCGGVNPVHDGVNLSGGHADSVVDGLEQGSLCFVLVPAKVSVHDGNLPQDSGHDGHNDNLPQDSVEPSSFFDESYELNHLFFDQEDSQGYLPDEDEDFGFNDDGSIRDSGHYQ	failed
MAKIVQLPDDLSNKIAAGEVVERPASVVKELVENAIDANSSVIEIDVEEAGLASIKVLDDGEGMDAEDCRTAFLRHATSKIKDENDLFRVRTLGFRGEALPSIASVSHLSIKTSTGEGAGTHLTLQGGRIISEQKAPSRRGTEITVTNLFFNTPARLKYMKTIHTELGNITDVVNRIALAHPEVSIRLRHQGKTLLQTNGNGDVRHVLAAIYGTAVAKKMLPLEARSLDFEVKGYIALPEITRASRNYMSSVVNGRYIKNFPLVKAIHEGYHTLLPIGRHPITFIEINMDPLLVDVNVHPSKLEVRLSKETELHELIRDAIKDVFKQQQLIPSVQVPKKTAPLINKPEQQKLDFDQVREPAPLSDSDVEREYKPEPSFSAMKLSSLVKDPPPSAPVEREENVMQDTEPEWPGAEEYTPEAAPAVQAEPEQAGENVQDEETPKERVPIMYPIGQMHGTYILAQNENGLYIIDQHAAQERIKYEYFREKVGEVESEVQDLLVPLTFHYSKNEALTIDQHLDDLAKVGVFLESFGAGSYIVRCHPTWFPKGEETTIIEDIIQQVLDDRTIDIKKLREEAAIMMSCKGSIKANHHLRDDEITALLDELRRTSDPFTCPHGRPIIIHYSTYEMEKMFKRVM	failed
MSHYNPEQLNFVNNHRNNVKEGYFYKNNLLKENNNKMESSKNCIMVPLINNPSHSENNFSKNNRDENINEEKSKYQFEYQNKIIQVPELKYVDKMVYDPVIIEKVKYVPKEVIKYNIIKKPVIKNIITEKKVDVLQVKEKISFKEEEIVEDVYNYVDKDLNTKWNESQYDNEMYKDLTKKKNYIGQNHLLPNNINKMGHINDRTYKHINNNITNLLEPFGPQIDVEENKIIENVFVPNVEKVIEVNKKIDIPINLPVPYIVPKPKIIDVDVPVFKFNDKYVPVPVSKKIIPKITWTDKIYQVDCLIEKPYLVYHNIIKMVPTDSKITVREYPKGIKKINPEELYEVDNLALWMRVNADLKQEHDQMKNEKYETNKKKGKGETEQLDDNISSDHTCECSESYETYEKLSNEEFNSSNEETTIKSSNENILDTLPLHPGHPLEFIHLQNKWINQDTTNIPDMYDQKYLDAHRNAVFNLTTQMPREAEVEAKQLLYIQKKLQQEETL	failed
MRINILSEDTSNKIAAGEVVERPFSVVKELVENSIDAGAKTINIEIENGGRTLIKVLDDGYGIDKDDIEKAFMPHATSKISKLQDIYSINTLGFRGEALPSIASVSKTTLKSRTKENEFGREISISGGSVDYIKDCGTNIGTHIEVRDLFYNVPAREKFLKSTAKEASSISDIVNRLALAHSEISFRLINNGKRVITTYATDNLIDTIRAIYGKKICDNVISFERHTDLVSVHGYVGNAEISRGSRNNQSIFINKRYIKNKLITAAVENAVKSFMMINKFPFFIIFLDIFPEFVDVNVHPTKSEVKFQNERDIFKIIFDTVHEGIRNSLKESFKVEALKEEEDKLFDIKEDVITKNEIKHDDKIDGYIKKDSFPVPVQIPIDLKRPIENYDNSTKENKDRSFDDFREKDIIKETSQEKETYDIITNKKAKFPELRVIGQFNNTYILAESFEELYIIDQHAAHEKILFEKYREDIKNKGVSSQILITPSVVELLPEDFIYYDENKEVFKNAGFVIEYFGDNTVAIKEVPLFLGKPLVKDLFLEIIDNLKNMGSGETSEVKYRSIATAACKSAVKAYHELTHDEMKTLIQDLRFAEDPFNCPHGRPTIVRLTVTDFEKKFKRIQ	failed
MKVRADFAFEKVARDWFVRWSKGRSEKYAGQVMRNFERWVFPAIGNLDIRQVRTADVVGCLRVMEARGIVDTLRKTKNSLKMVFAFAVGSGMMEINPVAQIGSGVFERLEHHHHHH	not failed
MMFHEGTNVAGNAELIPIRLFGTPRCEAVRDAFFPSKGFALTAALILAPNQSLSRQYAASLLWENVEQKRALGNLRQLILRLQKLPSEDDAILLTEGNDLKAGALAQRTDLAIFLAGARAEDPMRRLNALLEFGGDLLEGLEAGQDHLYLWLLSERRRLKDLFFSSYTQLLEELTRFGRASSNDIARLAECACKIEPEREETYRAAMAAYARVGNISACEGMYQLLMEQLRQEDRSPEAETVALKRRIQSLAATIAGPVEPEEGSRRQVLAKPRVAFVRPARVDGQPVPTVIHAFVEDVANSLVRYRTFTVLSPHSTFALAHDRVDDSYAMLRADYRIISTVFDDSRMSVALIEDASGEIVWSLEAVLTERHIHAAFRLLSKQVAAALAREIERLQVEPDRNHSGEAYRQLLEGQQLLRGKCDLPLLRRARSLFRKAVDLDHSLAVARARVAQSLQLEWLMLGGNDPHLLHRAKAEADASVEIDPALGVGHWMCAVVALYQRDFDISAEKFFEAEALAPNSADLLLQHADALAHFGDAEIAWDKFQQAINLNPLAPDIYWWAGASIAFKRQDYGTAVELCGRMENDEPALRVLTASHALHGDLLAARESGSRLQENYPGMTAREISSLSPDRDPIANERFYHALRLAGIK	failed
MGTETVVHDQARWAMAAMERRLAVAKAQLLQQQQQKNEKDKKGTSDVDVSMKESHQADSLPTPSKTSIKKVDPKDDDSVAYTKLSHPVDENLLATNVKFSSAKGTIVDKVLHNLLRSGDSAQKYLQGTKSVKLDNYILLDNFVQSRSSASGSKKASQKDSKRSKSRMSMKRLKKSGALHIPKDLQKFDLFKPMHGMWESYMMKLIKVTGKIQLSLTLLSADLHGAFMFGNPSFFHKSVVLGYDLLSLTHFPKLNFSQPILLVTVAECKIASFTGVQGIMVRETSETFGIITRDDKFRGILKLFSPIYLP	failed
MLTTQGVPEFCYITIIGLILFMIFKEVLSQSKFWRKDLESSSNMVILPLLISFSAIVAYKIAEIL	failed
MEFDKSVQNYLIGANFSSGLVLDISKKENYILDRISILEQLSKDKKIIHLGCCDHIPLIQNKIENNTWLHSRLCSNSKRCIGVDINKDGIKYLKNNLGYEDVLCGDIIEEELNAIKEEHWDYMILGEILEHIDNPCLFLSDVQKKYHGIVDRLVITVPNALSYQNMKYTFLNKEYINTDHRYWFTPYTLGKIVTLAGMEVEKFFFCVPFPRDNGVFYALNPKSILFDFICKRYPPTRETLLMVAVV	failed
MEGIQHPIPRTVEEVFSDFRGRRAGLIKALSTDVQKFYHQCDPEKENLCLYGLPNETWEVNLPVEEVPPELPEPALGINFARDGMQEKDWISLVAVHSDSWLISVAFYFGARFGFGKNERKRLFQMINDLPTIFEVVTGNAKQSKDQSANHNSSRSKSSGGKPRHSESHTKASKMSPPPRKEDESGDEDEDDEQGAVCGACGDNYGGDEFWICCDACEKWFHGKCVKITPAKAEHIKHYKCPSCTTSKKMKA	failed
MQTQLTEEMRQNARALEADSILRACVHCGFCTATCPTYQLLGDELDGPRGRIYLIKQVLEGNEVTLKTQEHLDRCLTCRNCETTCPSGVRYHNLLDIGRDIVEQKVKRPLPERILREGLRQVVPRPAVFRALTQVGLVLRPFLPEQVRAKLPAETVKAKPRPPLRHKRRVLMLEGCAQPTLSPNTNAATARVLDRLGISVMPANEAGCCGAVDYHLNAQEKGLARARNNIDAWWPAIEAGAEAILQTASGCGAFVKEYGQMLKNDALYADKARQVSELAVDLVELLREEPLEKLAIRGDKKLAFHCPCTLQHAQKLNGEVEKVLLRLGFTLTDVPDSHLCCGSAGTYALTHPDLARQLRDNKMNALESGKPEMIVTANIGCQTHLASAGRTSVRHWIEIVEQALEKE	failed
MKTFIIGISGVTNSGKTTLAKNLQKHLPNCSVISQDDFFKPESEIETDKNGFLQYDVLEALNMEKMMSAISCWMESARHSVVSTDQESAEEIPILIIEGFLLFNYKPLDTIWNRSYFLTIPYEECKRRRSTRVYQPPDSPGYFDGHVWPMYLKYRQEMQDITWEVVYLDGTKSEEDLFLQVYEDLIQELAKQKCLQVTA	failed
MTASNPTILALDFDGVICDGLIEYFEVAWRTYCQIWSPAENTPPDDLALRFYRLRPVIETGWEMPVLIKALVDGNSDDQILQEWTSITPKILLDDKLQAKEIATKLDGLRDEWIANDLDGWLSLHRFYQGVIEKLKIAVASEVKLYIVTTKEGRFVEQLLHQEGVDLPRDAIFGKEVKRPKYEIIRELIQAADHEPVSLWFVEDRIKTLQLVQQQSDLEDVKLFLADWGYNTQSERKAAQSDPRIQLLSLSQFAKDFPGWV	failed
MTIIDDGKLKKAITAASLGNAMEWFDFGVYGFVAYALGKVFFPDANPSVQMIAALGTFSVPFLIRPLGGLFFGMLGDKYGRQKILAITIVIMSISTFCIGLIPSYATIGIWAPILLLLCKMAQGFSVGGEYTGASIFVAEYSPDRKRGFMGSWLDFGSIAGFVMGAGVVVLISSVVGEQNFLDWGWRIPFFLALPLGIIGLYLRHALEETPAFQQHVDTMEQGDREGLQDGPKVSFKEIATKHWRSLLTCIGLVISTNVTYYMLLTYMPSYLSHNLHYSEDHGVLIIIAIMVGMLFVQPVIGMLSDRFGRRPFILIGSVALFALSIPAFIMINSNVTGLIFAGLLLLAVVLNCFIGVMASSLPAMFPTHIRFSALASAFNISVLIAGLTPTLAAWLVETTQNLMMPAYYLMVIAVVGMATGLSMKETANRPLKGATPAASDIQEAKEILGEHYDNIEQKIEDIDQEIADLQAKRSRLVQQHPRIND	failed
MQVHYYGGTAEAAGTSEETVETPTGLSVNQLLDHLRNLHPGLGRLLGVCTLFVDGSAVRGEQIVPARAQVEVLPPFAGG	failed
